Data on one molecule can be found in article doi:10.1101/2020.04.14.041327 (bioRxiv, 2020).

Series [1] concerns the target linear M1-linked tetra-ubiquitin (UniProt P0CG48). The experiment in a line: SEC-MALS. In general terms: Size exclusion chromatography separates by hydrodynamic size, large species first.
Series [2] deals with the molecule itself. In words: SEC-MALS.
For series [3], the target named is linear M1-linked tri-ubiquitin (UniProt P0CG48). In words: SEC-MALS.
Series [4] addresses linear M1-linked tetra-ubiquitin (UniProt P0CG48). The experiment in a line: ITC. In general terms: Isothermal titration calorimetry measures the heat released or taken up as one component is titrated into another.
Series [5] has as its target linear M1-linked tri-ubiquitin (UniProt P0CG48). In words: ITC.
In series [6] the target is linear M1-linked tetra-ubiquitin (UniProt P0CG48). The experiment in a line: SPR. (In general: Surface plasmon resonance follows binding to a sensor surface in real time, without labels.)
Series [7] concerns the target linear M1-linked tri-ubiquitin (UniProt P0CG48). In words: SPR.

Sequence of linear M1-linked tetra-ubiquitin (P0CG48 1-304): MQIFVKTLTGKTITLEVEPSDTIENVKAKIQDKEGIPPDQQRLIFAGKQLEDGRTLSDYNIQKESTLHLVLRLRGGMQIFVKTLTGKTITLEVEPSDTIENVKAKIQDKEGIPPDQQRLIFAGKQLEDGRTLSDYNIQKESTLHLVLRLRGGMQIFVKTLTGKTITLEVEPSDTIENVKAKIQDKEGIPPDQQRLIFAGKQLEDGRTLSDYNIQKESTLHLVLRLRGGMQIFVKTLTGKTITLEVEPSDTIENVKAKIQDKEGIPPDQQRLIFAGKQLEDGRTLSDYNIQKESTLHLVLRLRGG
Sequence of linear M1-linked tri-ubiquitin (P0CG48 1-228): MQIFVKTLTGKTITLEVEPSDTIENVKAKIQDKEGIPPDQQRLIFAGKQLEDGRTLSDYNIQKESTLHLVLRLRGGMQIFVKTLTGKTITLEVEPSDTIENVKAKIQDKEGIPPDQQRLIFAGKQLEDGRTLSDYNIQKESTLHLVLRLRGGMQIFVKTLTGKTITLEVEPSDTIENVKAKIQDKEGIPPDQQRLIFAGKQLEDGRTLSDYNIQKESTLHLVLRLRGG

B1: Human NEMO 258-350 C347S (NEMO UBAN domain) (domain or fragment)
chain: MQLEDLKQQLQQAEEALVAKQEVIDKLKEEAEQHKIVMETVPVLKAQADIYKADFQAERQAREKLAEKKELLQEQLEQLQREYSKLKASSQES
In the case of B1, the “stoichiometry N” value in series [1] and in series [3] was 2 NEMO monomers per poly-ubiquitin each time. For the same molecule, the binding result in series [2] was “binds”. Moreover, the Kd (as a rule, the constant that tells how readily two partners part at equilibrium) in series [4] is 4.1 µM; in series [5], 1.6 µM; in series [6] it was 6.4 µM; in series [7], 9.6 µM. Also, the results for the dH in series [4] and in series [5] were -18.8 kJ/mol and -17.9 kJ/mol, respectively.
